Experimental findings from the supplement of paper PMC12042874 are described below.

± gives the uncertainty stated by the source.

This data set can be described thus: amyloid nucleation score (Sup35N fusion, yeast selection) (log enrichment); library NNK3; higher = more nucleation; inactive = no reads after selection. The procedure, abridged:
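The nucleation score is the DiMSum log enrichment of output over input reads, centred on the mode score of non-aggregating sequences. Only sequences with 100 or more input reads were scored, using Illumina sequencing of input and output plasmid inserts. Psi-negative yeast expressing Sup35N fused to peptides of 20 random codons were induced 24 hours with 100 μM copper sulfate and grown 7 days at 30°C on medium lacking adenine and uracil.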
For VPSQLFLHRHHCVVWIEDMW, the amyloid nucleation score was 0.827 ± 0.19. On to VNWIVLSYHYNRYDVGNMAS, for which the amyloid nucleation score was found to be 2.87 ± 0.074. Regarding DANGCA, the amyloid nucleation score entry is “inactive”. In the case of SCSSTDDWPGISSG, the amyloid nucleation score entry was “inactive”. Then VYRLEVDISTILEGWSG, with “inactive”; and SYTIVERAIRWYPPT, with 0.966 ± 0.11; and CSGYSTNFGK, with “inactive”.

In the case of YCFNLFRSARRGDGCAMIGC, the amyloid nucleation score result is “inactive”. Take VDSSMDLHSIS: the amyloid nucleation score result is “inactive”. With LCCGKCRPGPKFCTKISHTN, the amyloid nucleation score result is “inactive”.

In the case of LSEIGIPVAVSFKPADSLGL, the amyloid nucleation score result is “inactive”.

For LFFSRS, the amyloid nucleation score result is “inactive”.

Turning to FWVNVCVFMGRVW, the amyloid nucleation score entry is “inactive”. On to RQIRPMRTLSGTLGAGDRCH, for which the amyloid nucleation score entry was “inactive”.

The substance YRYYCWNCCELGIDGTMWVA displayed an amyloid nucleation score of -0.526 ± 0.45. Turning to NCMYSLSMQREPFYPSRGVD, the amyloid nucleation score result was “inactive”. With TIFEAA, the amyloid nucleation score entry was “inactive”. Turning to GSRVN, the amyloid nucleation score was -0.352 ± 0.36. Then NYGQALHWLLRGGSMWSQGT, with “inactive”; and FLRWFWRD, with 0.785 ± 0.18.

Consider EAGSTLWCGWKRYASCGRAE, for which the amyloid nucleation score result was “inactive”.

For the substance CRGTEAGHPHVGIDHRARMV, the amyloid nucleation score is -0.957 ± 1.8. In the case of RFSTGDIWRYPDGNMFWTSL, the amyloid nucleation score result was “inactive”.

In the case of FAQYYDSVPIDEDTIQIVHI, the amyloid nucleation score result was “inactive”. Consider VSSATTTMARRIHCFRVSRV, for which the amyloid nucleation score result is “inactive”.

As for NIFDFVFDEFRLAQPMYKCC, the amyloid nucleation score entry is “inactive”. Then FHTYIELLRALIAIRQGGSF, with “inactive”; and SPFVCHEPLLRVVWSSTCSF, with “inactive”. Take VDEAEKGVNHLERRGSYSRY: the amyloid nucleation score entry was “inactive”. On to VVGLWTNS, for which the amyloid nucleation score entry was “inactive”. Turning to IRTSLSSVLDVCHTSNTI, the amyloid nucleation score entry was “inactive”.

As for CRTHSDVVVSTHFMNAWLSI, the amyloid nucleation score entry was “inactive”. On to NFRNRMRVLFSCS, for which the amyloid nucleation score result is “inactive”. For the substance FRTTLKTR, the amyloid nucleation score entry was “inactive”. As to CCTIIRAYVVRELAHINNSW, the amyloid nucleation score result is “inactive”.

Consider ASVKGDRDDELSIKYVFGVG, for which the amyloid nucleation score result is “inactive”.

FDKGFLMTLNTLAVLSNQE: the amyloid nucleation score entry is “inactive”. Regarding RFSRRYMHGFS, the amyloid nucleation score entry is “inactive”. Turning to HWNCGVTNSGEFFALAVGFI, the amyloid nucleation score result is “inactive”. Then SSASYVHCDFYIFGGLAPSN, with 2.8 ± 0.063.

In the case of TFRVNMCNPLMLGYVLFWLD, the amyloid nucleation score entry was “inactive”. Take MCFKTEYSRSPGYIAN: the amyloid nucleation score entry was “inactive”. As for PCRTDICR, the amyloid nucleation score entry is “inactive”. In the case of RSYARRSTGILAR, the amyloid nucleation score is -0.112 ± 0.75.

As to LDAVNF, the amyloid nucleation score result is “inactive”. The substance ECYFFHFTR showed an amyloid nucleation score of 1.34 ± 0.12. On to QEGGRWEPQKGRWESQAYLS, for which the amyloid nucleation score was -0.062 ± 0.49. With RRSKISLS, the amyloid nucleation score result was “inactive”.

For FFHFSNVCTWVPDYSETSPS, the amyloid nucleation score entry was “inactive”.

AYYNMK yielded an amyloid nucleation score of -0.111 ± 0.21. Consider STRILRLHITSMLDFRTTGA, for which the amyloid nucleation score result was “inactive”. The substance KFFYCERVLSGNRVKRHERI returned an amyloid nucleation score of 0.676 ± 0.21. To PGREIVVPHFR belongs “inactive”; to YTIYIIIRW, 1.03 ± 0.084; to FSCIPCG, “inactive”. To FYCRSGVGKCYGWVTKVMRE belongs “inactive”. As for SKAVSLCGLRLMFFPLYPGS, the amyloid nucleation score entry is “inactive”. In turn, MFLFKVTDTE had an amyloid nucleation score of 1.88 ± 0.098. Take FYWGACSIHLFKL: the amyloid nucleation score entry is “inactive”. Consider WNGKGLSSGTLSISRKT, for which the amyloid nucleation score result is “inactive”. Turning to LMPSDFISSYNSLYDGCLGG, the amyloid nucleation score result was “inactive”. In the case of IFIIIGRRFIILKSLVRLHF, the amyloid nucleation score result was “inactive”. Substance DSLSGYSVPYWSSFMNPWTN gave an amyloid nucleation score of 0.677 ± 0.24. In turn, MCGCARLFVSLSATAKTNP gave an amyloid nucleation score of -0.003 ± 1.1. With VGYLCFLFQTDSFI, the amyloid nucleation score result is “inactive”. FYNDWRVFRVGCSLGRDQSN: the amyloid nucleation score result was “inactive”. KSCWLSYGFQLFIGVMNMH registered an amyloid nucleation score of 1.29 ± 0.079.

On to AWFTEVYFKPSFRKR, for which the amyloid nucleation score result is “inactive”. Consider HSVLGMCFSPKGVDVTTLVN, for which the amyloid nucleation score entry was “inactive”.

As for CRYQCRQLKVIVCSGDWNLV, the amyloid nucleation score entry was “inactive”. Turning to SYMVSLRIVLFFDYR, the amyloid nucleation score result was “inactive”. On to PLPPPRKAMASLFVFLAWMA, for which the amyloid nucleation score result is “inactive”. FHPFFIGVGSFLGSLHEFQS: the amyloid nucleation score entry was “inactive”.

Take LIPQRDNMGGGFRTFSLCYV: the amyloid nucleation score entry is “inactive”. In the case of QFIWRLLRDSTKNFTLLSYK, the amyloid nucleation score result was “inactive”. Then GLLSPRTGCD, with “inactive”; and FVLGGFLNKN, with -0.11 ± 1.4. On to DGGCSKIVRQTLWLNPLGNS, for which the amyloid nucleation score result is “inactive”. Then YICVMWMYSCKLSLPMWHPR, with “inactive”. As for VLSSWTIK, the amyloid nucleation score result was “inactive”. For MSSISIKGKIYDWMFRFCCR, the amyloid nucleation score entry was “inactive”. For the substance ALGKRSLLR, the amyloid nucleation score result is “inactive”.

On to SIADRMHFLWVGEGGTRDYA, for which the amyloid nucleation score entry is “inactive”. On to FTGFN, for which the amyloid nucleation score result is “inactive”.

With SSNDDFWIKGGQCEYIRFRL, the amyloid nucleation score entry is “inactive”. To SPLYGYGDKRQVRYLLTGSC belongs “inactive”; to ADLPCDVATNLVPLTRSSQM, “inactive”. Consider SVYGIYGSNYMNTFVVVLVG, for which the amyloid nucleation score result was “inactive”. LASFEIRNREY showed an amyloid nucleation score of 0.519 ± 0.33. Turning to YFLRREQLYNLRKGK, the amyloid nucleation score result is “inactive”. To WLVFITPYLSLSCLSLINKI belongs “inactive”; to CVNVLQPGVTHSRMANLCSG, “inactive”. To FIGVKQTRKLNTFCLGSWLM belongs -0.061 ± 0.66; to PVYGSLCRFYGVRYGR, “inactive”; to WVNFRSPFLNGANA, -0.686 ± 0.68.

Take VSYGTCH: the amyloid nucleation score result is “inactive”. Regarding CWDYWACGQGTA, the amyloid nucleation score entry is “inactive”. As for CAKLLYGCDTSFREWMVGAE, the amyloid nucleation score result was “inactive”. On to SMFTAIASTTFNLQSLYLM, for which the amyloid nucleation score entry was “inactive”.

For the substance GVGTYI, the amyloid nucleation score entry was “inactive”.

Regarding NSLFSNCARLYGNRGTLGLS, the amyloid nucleation score entry was “inactive”. Take EMPLF: the amyloid nucleation score result was “inactive”.

Take DPYSDVQDKDTSDAGYASRV: the amyloid nucleation score entry is “inactive”. In the case of NLAAEASVLVYEDELGCRHG, the amyloid nucleation score result is “inactive”. Consider YYRLFLI, for which the amyloid nucleation score entry was “inactive”. Consider VKTINSWIRWVTLRILQVVS, for which the amyloid nucleation score result was “inactive”.

Turning to VFDGWGLFRLSTICMCLQRH, the amyloid nucleation score result was “inactive”. As for STTMAFAAIVFEIYSVTSWF, the amyloid nucleation score result is “inactive”.

The substance WSFQLSVLFVCNLITYNCV yielded an amyloid nucleation score of 1.68 ± 0.069. Regarding ASRIDINRIWFVFWIQAIKS, the amyloid nucleation score result is “inactive”.

Regarding FVTAAN, the amyloid nucleation score result is “inactive”. As for GEKCGRSRI, the amyloid nucleation score entry is “inactive”. To DYCGDCMILFCTLVGYDRCT belongs 2.06 ± 0.068. Consider SAFKAKL, for which the amyloid nucleation score entry was “inactive”. With GGFCKWRKCGVYKMTGHCPE, the amyloid nucleation score result was “inactive”. GIANRAFITDGGWGLFISTY: the amyloid nucleation score entry was “inactive”. For the substance LSVCVIEHAWVFCRTPVQAF, the amyloid nucleation score result was “inactive”. VCCFWVVDIKILFSGLPISS displayed an amyloid nucleation score of 2.28 ± 0.069.

Regarding SGTNLFRF, the amyloid nucleation score entry is “inactive”. As for FFVNYHVGIFMSIYQIFVYV, the amyloid nucleation score entry is “inactive”.

For VPEWG, the amyloid nucleation score entry is “inactive”. To DGKQVRGPGVAQSGANNGLE belongs “inactive”.

QLLCHYNSSSEFLTQKHRYW: the amyloid nucleation score result was “inactive”. For the substance TCVMPGVSQLRFGYWVWICR, the amyloid nucleation score result is “inactive”. In the case of FRSEVGVNFNRTLWRYNRVY, the amyloid nucleation score entry is “inactive”. Take SRSVDLLSLSRYIYLESRYD: the amyloid nucleation score result was “inactive”. VLVFSLISFLSWDWCSYLV: the amyloid nucleation score entry was “inactive”. Then FLVNFGKDFEIWREHYGVTI, with -0.484 ± 1.4; and HFCKRLENIVYLRIFIFYLN, with “inactive”; and ALSMLTG, with “inactive”. In the case of TCMYLRDHR, the amyloid nucleation score is -0.337 ± 0.98. To FSPYYLPLYVLVVRIKIQLG belongs “inactive”; to VSVCLKELHQ, “inactive”.
